Assays:
[1] = molecular target: T1, SyArgG (Synechocystis sp. PCC 6803, UniProt P77973); test: coupled NADH oxidation assay (myokinase, pyruvate kinase, lactate dehydrogenase), […] nm; assay type: biochemical; settings: read-out: % residual activity at 5 mM
T1 construct: gene argG; synthetic ORF in pGEX-6P-1 (BamHI-XhoI); GST-tagged, tag kept (eluted with glutathione, no cleavage described); expressed in E. coli BL21(DE3)
T1 sequence (P77973 1-400): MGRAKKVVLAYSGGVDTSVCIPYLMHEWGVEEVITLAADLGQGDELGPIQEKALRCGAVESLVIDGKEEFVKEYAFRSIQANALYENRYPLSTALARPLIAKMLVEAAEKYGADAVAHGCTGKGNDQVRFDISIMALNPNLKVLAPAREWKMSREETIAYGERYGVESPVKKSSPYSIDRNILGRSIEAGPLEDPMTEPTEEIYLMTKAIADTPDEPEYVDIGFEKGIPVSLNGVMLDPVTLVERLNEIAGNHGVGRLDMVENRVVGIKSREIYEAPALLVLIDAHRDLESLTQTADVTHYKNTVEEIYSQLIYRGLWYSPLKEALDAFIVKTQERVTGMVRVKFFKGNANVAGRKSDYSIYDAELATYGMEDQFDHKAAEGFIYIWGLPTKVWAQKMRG

[2] = substrate: N[C@@H](CC(=O)O)C(=O)O; test: purified protein; settings: 38 °C, pH 9.0 Tris-HCl, 5 mM MgCl2, 2 mM KCl, co-substrates 7.5 mM citrulline, 1 mM ATP
[3] = substrate: Nc1ncnc2c1ncn2[C@@H]1O[C@H](COP(=O)(O)OP(=O)(O)OP(=O)(O)O)[C@@H](O)[C@H]1O; test: purified protein; assay type: biochemical, Synechocystis sp. PCC 6803; settings: 38 °C, pH 9.0 Tris-HCl, 5 mM MgCl2, 2 mM KCl, co-substrates 7.5 mM citrulline, 7.5 mM aspartate
[4] = substrate: NC(=O)NCCC[C@H](N)C(=O)O; test: purified protein; assay type: biochemical, Synechocystis sp. PCC 6803; settings: 38 °C, pH 9.0 Tris-HCl, 5 mM MgCl2, 2 mM KCl, co-substrates 7.5 mM aspartate, 1 mM ATP

N=C(N)NCCC[C@H](N)C(=O)O [arginine] gave a remaining activity at 5000 µM [1] of 18.4%.

O=C(O)CCC(=O)O [succinate] showed a remaining activity at 5000 µM [1] of 92.1%.

Molecule NCCC[C@H](N)C(=O)O [ornithine] has a remaining activity at 5000 µM [1] of 80.1%.

NCCCC[C@H](N)C(=O)O [lysin] gave a remaining activity at 5000 µM [1] of 78.1%.

B1: SyArgG (Synechocystis sp. PCC 6803 substr. Kazusa) (protein)
chain: MGRAKKVVLAYSGGVDTSVCIPYLMHEWGVEEVITLAADLGQGDELGPIQEKALRCGAVESLVIDGKEEFVKEYAFRSIQANALYENRYPLSTALARPLIAKMLVEAAEKYGADAVAHGCTGKGNDQVRFDISIMALNPNLKVLAPAREWKMSREETIAYGERYGVESPVKKSSPYSIDRNILGRSIEAGPLEDPMTEPTEEIYLMTKAIADTPDEPEYVDIGFEKGIPVSLNGVMLDPVTLVERLNEIAGNHGVGRLDMVENRVVGIKSREIYEAPALLVLIDAHRDLESLTQTADVTHYKNTVEEIYSQLIYRGLWYSPLKEALDAFIVKTQERVTGMVRVKFFKGNANVAGRKSDYSIYDAELATYGMEDQFDHKAAEGFIYIWGLPTKVWAQKMRG
notes: synthetic ORF in pGEX-6P-1 (BamHI-XhoI); GST-tagged, tag kept (eluted with glutathione, no cleavage described); expressed in E. coli BL21(DE3)
B1 showed a Km [2] of 360 ± 40 µM, a kcat [2] of 0.77 s⁻¹ and a kcat/Km [2] of 2160 M⁻¹ s⁻¹. It also gave a Km [3] of 260 ± 10 µM, a kcat [3] of 0.7 ± 0.002 s⁻¹ and a kcat/Km [3] of 2750 ± 120 M⁻¹ s⁻¹. For the same molecule, the Km [4] was 350 ± 10 µM, the kcat [4] was 0.69 ± 0.01 s⁻¹ and the kcat/Km [4] was 1970 ± 50 M⁻¹ s⁻¹.
